Results reported in patent publication US20250333515A1.
Substitutions are numbered along the chain they refer to.

B1: Anti-CLL-1 Binder Clone 11 (scFv, not shown: small tags and cut ends)
scFv: QSVLTQPASVSGSPGQSITISCTGTSSDVGASNSVSWYQRHPGKPPKLMIYDVSNRPSGISNRFSGSKSGNTASLTISGLQSEDEADYYCSSYTGSSTFVVFGGGTQLIILGGGGSGGGGSGGGGSEVQLVESGGGVVQPGGSLRLSCAASGFTFSSYWMSWVRQAPGKGLEWVANIRQDGSEKYYVDSVKGRFTISRDNAKNSLYLQMNSLRAEDAAVYYCAREQDTAMVAFDYWGQGTLVTVSS
B2: Anti-CLL-1 Binder Clone 40 (scFv, not shown: small tags and cut ends)
scFv: QSVLTQPPSVSAAPGQKVTISCSGSSSNIGNNYVSWYQQLPGTAPKLLIYDNNKRPSGIPDRFSGSESGTSATLGITGLQTGDEADYYCGTWDSSLSAWVFGGGTQLIILGGGGSGGGGSGGGGSQVQLQQSGPGLVKPSQTLSLTCAISGDSVSSNSAAWNWIRQSPSRGLEWLGRTHYRSKWYNDYAVSVKSRITISADTSKNQFSLQLNSVTPEDTAVYYCARDRYTVRPDAFDIWGQGTTVTVSS
B3: Anti-CLL-1 Binder Clone 6 (scFv, not shown: small tags and cut ends)
scFv: QSVLTQPPSVSAAPGQKVSIFCSGGSSNIGKNYVSWYQQLPGTAPKLLIYENQHRPSGIPDRFSGSKSGTSATLGITGLQTGDEADYYCATWDDSLSAGVFGGGTELTVLGGGGSGGGGSGGGGSQLVQSGAEVRKPGESLKISCKGSGYSFTSYWIGWVRQMPGKGLEWMGFIYPGDSDTRYSPSFQGQVTISADKSISTAYLQRSSLKASDTAMYYCARLGGYSGYDSEVFYLDYWGQGTTVTVSS
B4: Anti-CLL-1 Binder Clone 38 (scFv, not shown: small tags and cut ends)
scFv: DIQMTQSPSTLSASVGDRVTITCRASQSISSWLAWYQQKPGKAPKLLIYTASSLQSGVPSRFSGSESGTDFTLTISSLQPEDFATYYCQQSYSTPLTFGGGTKVDIKGGGGSGGGGSGGGGSQVQLVQSGAEVKKPGASVKVSCKASGYTFTGYYMHWVRQAPGQGLEWMGWINPNSGGTNYAQKFQGRVTLTRDTSITTAYLELTSLTSDDTAVYYCARGDTGDFFDHWGQGTLVTVSS
B5: Anti-CLL-1 Binder Clone 20 (VHH, not shown: small tags and cut ends)
VHH: QVQLVQSGGGLVQPGGSLRLSCAASDFSFSYYEMSWVRQAPGKGLEWVSTISGSGDSTYYADSVKGRFTISRDNTKNTLYLQMNTLRAEDTATYYCMTDGETWGTHRYTVYWGQGALVTVSS
B6: Anti-CLL-1 Binder Clone 10 (scFv, not shown: small tags and cut ends)
scFv: DIQMTQSPSFLSASVGDRVTITCRASQGISSYLAWYQQKPGKAPKLLIYSASSLQSGVPSRFSGSGSGTDFTLTISSLQPEDFATYYCQQSYNSPTFGQGTRLEIKGGGGSGGGGSGGGGSQVQLVQSGAEVKKPGASVKVSCKASGYTFTGYYMHWVRQAPGQGLEWMGWMNPNSGNTGYAQKFQGRVTMTRNTSISTAYLELTSLTSDDTAVYYCARGDTGDFFDHWGQGTLVTVSS
B7: Anti-CLL-1 Binder Clone 41 (scFv, not shown: small tags and cut ends)
scFv: QSVLTQPASVSGSLGQSITISCTGTSRDVGGYNFVSWYQQHPGKAPKLIIFDVTTRPSGLSDRFSASKSGNTASLTISGLQAEDEADYFCGSYTASDTMLFGGGTKLTVLGGGGSGGGGSGGGGSQVQLLESGGGVVQPGRSLRLSCAASGFTFDDYAMHWVRQAPGKGLEWVSGISWNSGSIGYADSVKGRFTVSRDNSKNTLYQQMNGLRAEDTAVYYCAREGRPTAFDYWGQGTTVTVSS
B8: Anti-CLL-1 Binder Clone 2 (scFv, not shown: small tags and cut ends)
scFv: QSVLTQPLSVSVALGQTARITCGGNNIGSKNVHWYQQKAGQAPVLVIQRDSNRPSGIPERFSGSNSGNTATLTISRAQAGDEADYFCQVWDSNTYVFGTGTKLTVLGGGGSGGGGSGGGGSEVQLVESGGGLVKPGGSLRLSCAASGFTFSDYYMSWIRQAPGKGLEWVSYISSSGSTIYYADSVKGRFTISRDNAKNSLYLQMNSLRDEDTAVYYCARQSAEIVGAFDHWGQGTMVTVSS
B9: Anti-CLL-1 Binder Clone 4 (scFv, not shown: small tags and cut ends)
scFv: QSVVTQPPSVSAAPGQKVTISCSGSSPNIGKNYVSWYQQLPGTAPKLLIYDNNKRPSGIPDRFSGSKSGTSATLGITGLQTGDEADYYCGTWDSSLSGYVFGTGTKVTVLGGGGSGGGGSGGGGSQVQLVESGGGVVQPGRSLRLSCAASGFTFSSYGMHWVRQAPGKGLEWVAFISHDGSNKYYADSVKGRSTISRDNSKSTLFLQMNSLRDEDTAVYFCAREGQLTTSWDFFDYWGHGTLVTVSS
B10: Anti-CLL-1 Binder Clone 12 (scFv, not shown: small tags and cut ends)
scFv: DIQMTQSPSSLSASVGDRVTITCQASQDISNYLNWYQQKPGKAPKLLIYDASNLETGVPSRFSGSGSGTDFTLTISSPQPEDLATYYCQQANSFPFTFGQGTKVEIKGGGGSGGGGSGGGGSQVQLVQSGAEVKKPGSSVKVSCKASGYSFTRNDITWVRQANGRGLEWLGRLNPNNGDTVYAEVFQGRVAMTRDTSTDTAYMELASLKSDDTAVYFCARGFWSFDVWGQGTMVTVSS
B11: Anti-CLL-1 Binder Clone 99 (VHH)
VHH: QVQLVQSGGGLVQPGGSLRLSCAASAFDFYSYEMSWVRQAPGKGLEWVSYIGPIGTDIGYADSVKGRFTISRDNSKNTLYLQMNTLRAEDTAMYYCAKDPYYDSTGLTSYWGQGTLVTVSS
B12: Anti-CLL-1 Binder Clone 98 (VHH)
VHH: QVQLVQSGGGLVQPGGSLRLSCAASDFYFDDYEMSWVRQAPGQRLEWVSLISSDGTTYYADSVKGRFTISRDNSKNTLYLQMNTLRAEDTALYYCVRTTDSWELDLWGRGTLVTVSS
B13: Anti-CLL-1 Binder Clone 94 (VHH)
VHH: QVQLVQSGGGLVQPGGSLRLSCAASYFDFAAYDMDWVRQAPGQRLEWVAKISHDGSYSWYADSVKGRFTISRDNSKNTLYLQMNTLRAEDTAVYYCVRGEGGSERADYWGRGTLVTVSS
B14: Anti-CLL-1 Binder Clone 95 (VHH)
VHH: QVQLVQSGGGLVQPGGSLRLSCAASAFDFDDSSMDWVRQAPGKALEWIGSISYFGSTYYNPSLKSRVTISRDNSKNTLYLQMNTLRAEDTATYYCTRSALYGDAAFDVWAQGTTVTVS
B15: Anti-CLL-1 Binder Clone 97 (VHH)
VHH: QVQLVQSGGGLVQPGGSLRLSCAASDFDFDDDSMDWVRQAPGKGLEWIGSVLHDGATYYNPSLKSRVTISRDNSKNTLYLQMNTLRAEDTATYYCTRSALYGDAAFDVWAQGTMVTVSS
B16: Anti-CLL-1 Binder Clone 100 (VHH)
VHH: B15 VHH with G44A, L52S, H53Y, D54S, A56Q, Y58F, T92M
B17: Anti-CLL-1 Binder Clone 101 (VHH)
VHH: B15 VHH with D30A, G44A, V51I, L52F, H53Y, D54S, A56T, T92V
B18: Anti-CLL-1 Binder Clone 96 (VHH)
VHH: QVQLVQSGGGLVQPGGSLRLSCAASYFDFSYYEMSWVRQAPGKGLEWVSLMSGNGGSTYYADSVKGRFTISRDNSKNTLYLQMNTLRAEDTATYYCVAHSSTWFSWGQGTLVTVSS
B19: Anti-CLL-1 Binder Clone 102 (VHH)
VHH: QVQLVQSGGGLVQPGGSLRLSCAASYFSFADYEMSWVRQAPGQRLEWVAVVSKDGNELYYADSVKGRFTISRDNSKNTLYLQMNTLRAEDTAVYYCVKDPYDFWSGYYSNWGQGTLVTVSS

What follows are binders tested against biotinylated recombinant human CLL-1 extracellular domain protein, isoform with lysine at amino acid position 244 (human) (UniProt Q5QGZ9) (assay: Octet (CLL-1-K244); variant column: Q>K).
Sequence of biotinylated recombinant human CLL-1 extracellular domain protein, isoform with lysine at amino acid position 244 (human) (Q5QGZ9 65-265): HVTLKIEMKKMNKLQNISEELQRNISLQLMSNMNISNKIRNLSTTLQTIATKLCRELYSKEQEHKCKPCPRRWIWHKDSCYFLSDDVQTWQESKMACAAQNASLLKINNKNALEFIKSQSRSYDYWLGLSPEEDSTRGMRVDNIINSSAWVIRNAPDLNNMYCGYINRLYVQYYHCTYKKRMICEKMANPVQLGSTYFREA

Kd [nM] | Binder
16.6 | B1

What follows are binders tested against biotinylated recombinant human CLL-1 extracellular domain protein, isoform with lysine at amino acid position 244 (human) (UniProt Q5QGZ9) (assay: Exp 1 (= Octet, CLL-1-K244 of FIG. 12B)).

Kd [nM] | Binder
8.35 | B2
5.08 | B3
16.6 | B1
1.74 | B4
5.68 | B5
2.61 | B6

The binders below were run against biotinylated recombinant human CLL-1 extracellular domain protein, isoform with glutamine at amino acid position 244 (human) (UniProt Q5QGZ9) (assay: Blitz (CLL-1-Q244)).
Sequence of biotinylated recombinant human CLL-1 extracellular domain protein, isoform with glutamine at amino acid position 244 (human) (Q5QGZ9 65-265): as above

Kd [nM] | Binder
306 | B7
14 | B2
11 | B3
70 | B8
41 | B1
13 | B9
14 | B4
45 | B10
33 | B5
21 | B6

What follows are binders tested against biotinylated recombinant human CLL-1 extracellular domain protein, isoform with glutamine at amino acid position 244 (human) (UniProt Q5QGZ9) (assay: Exp 2 (= Blitz, CLL-1-Q244 of FIG. 12B)).

Kd [nM] | Binder
306 | B7
14 | B2
11 | B3
70 | B8
41 | B1
13 | B9
14 | B4
45 | B10
33 | B5
21 | B6

Each binder was assayed against biotinylated recombinant human CLL-1 extracellular domain protein, isoform with glutamine at amino acid position 244 (human) (UniProt Q5QGZ9) (assay: EC50 table, CLL-1 Q244; reciprocals of the ELISA bars of FIG. 8B).

EC50 [nM] | Binder
88 | B11
11 | B12
90 | B13
5.3 | B14
1.3 | B15
0.59 | B16
4.8 | B17
6.4 | B18
2.5 | B19

The binders below were run against biotinylated recombinant human CLL-1 extracellular domain protein, isoform with lysine at amino acid position 244 (human) (UniProt Q5QGZ9) (assay: Octet (CLL-1-K244); variant column says Only Q).

Kd [nM] | Binder
8.35 | B2

Each binder was assayed against biotinylated recombinant human CLL-1 extracellular domain protein, isoform with lysine at amino acid position 244 (human) (UniProt Q5QGZ9) (assay: Octet (CLL-1-K244); variant: Both).

Kd [nM] | Binder
5.08 | B3
1.74 | B4
5.68 | B5
2.61 | B6

The binders below were run against biotinylated recombinant human CLL-1 extracellular domain protein, isoform with glutamine at amino acid position 244 (human) (UniProt Q5QGZ9) (assay: BLItz, 1:1 model (Q244 per FIG. 12B)).

Kd [nM] | koff [s⁻¹] | kon [M⁻¹ s⁻¹] | Binder
306 | 0.032 | 100000 | B7
14 | 0.00081 | 58000 | B2
11 | 0.00029 | 27000 | B3
70 | 0.0033 | 47000 | B8
41 | 0.0023 | 59000 | B1
13 | 0.00057 | 43000 | B9
14 | 0.00097 | 69000 | B4
45 | 0.0034 | 76000 | B10
33 | 0.0035 | 110000 | B5
21 | 0.0013 | 62000 | B6

These binders were tested against biotinylated recombinant human CLL-1 extracellular domain protein, isoform with lysine at amino acid position 244 (human) (UniProt Q5QGZ9) (assay: EC50 table, CLL-1 K244; reciprocals of the ELISA bars of FIG. 8B).

EC50 [nM] | Binder
93 | B11
12 | B12
5.1 | B14
1.3 | B15
0.6 | B16
4.8 | B17
6.4 | B18
2.6 | B19
